According to PMC5050020, “The C9ORF72 GGGGCC expansion forms RNA G-quadruplex inclusions and sequesters hnRNP H to disrupt splicing in ALS brains”:

Target: T1, hnRNP H1 (recombinant) (UniProt P31943 1-449)
T1 sequence: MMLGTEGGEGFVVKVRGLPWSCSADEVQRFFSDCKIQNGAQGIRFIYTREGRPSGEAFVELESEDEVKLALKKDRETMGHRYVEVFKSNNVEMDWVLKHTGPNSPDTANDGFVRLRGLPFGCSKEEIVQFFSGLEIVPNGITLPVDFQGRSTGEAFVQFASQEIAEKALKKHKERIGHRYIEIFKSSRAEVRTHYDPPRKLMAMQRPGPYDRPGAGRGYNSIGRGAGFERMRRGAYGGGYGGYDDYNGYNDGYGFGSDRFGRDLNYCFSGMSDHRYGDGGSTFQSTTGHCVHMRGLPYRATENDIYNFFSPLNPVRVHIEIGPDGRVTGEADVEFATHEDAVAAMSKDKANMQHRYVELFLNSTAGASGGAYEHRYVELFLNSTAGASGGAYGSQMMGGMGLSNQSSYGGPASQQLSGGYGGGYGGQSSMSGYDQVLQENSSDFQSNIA
Experiment: EMSA; 30 nM tRNA; EMSA: 50 mM Tris pH 8, 50 mM NaCl, 2 mM EDTA, 0.5% BSA, 0.2% CHAPS, 0.3 nM RNA, 30 nM tRNA, 0-640 nM H1, 30 min 37 C, native 6% PAGE. UV crosslinking: ~1 nM RNA in U87 nuclear extract
Conditions: protein: recombinant, (pRSET-C vector, Ni-NTA), label: 32P

GGGGCCGGGGCCGGGGCCGGGGCC (ssRNA, all G replaced by 7-deaza-G (transcribed with 7-deaza-GTP)) [4R-7dG]
Kd (G-quadruplex destabilized): 13.5 ± 3 nM

GGGGCCGGGGCCGGGGCCGGGGCC (structured_RNA) [4R]
Kd (G-quadruplex, can be intramolecular): 75.5 ± 14 nM
